Assay [1] is described as follows: Heparin affinity column elution with NaCl gradient. It counts as binding. How it is done: Conditioned media are thawed, pooled, salt concentration adjusted to 0.4 M NaCl and then applied on an heparin immobilized column (Hitrap Heparin 5 ml or Heparin-sepharose CL6B 50 ml, GE Biological) equilibrated with 10 mM Tris, or with 20 mM phosphate buffer, 0.4 M NaCl and 0.1 mM EDTA, pH 7.4. The bound proteins are eluted in the same buffer with a gradient from 0.4 M to 2 M NaCl. The fractions eluted from 0.8 M NaCl and more contained only wild type antithrombin or mutated antithrombins with high heparin affinity. […] The collected fractions are pooled and the salt concentration is decreased either by over night dialysis against 10 mM Tris, or 20 mM phosphate, and 0.1 M NaCl, pH 7.4 at 4° C. or applied on an HiPrep 26/10 desalting column equilibrated with 10 mM Tris, or 20 mM phosphate, and 0.1 M NaCl, pH 7.4. The antithrombin is then concentrated by ion exchange chromatography using a “Resource Q” 1 ml column (GE, Biological) equilibrated with 10 mM Tris, or 20 mM phosphate, and 0.1 M NaCl, pH 7.4 and eluted in the same buffer with a NaCl gradient from […] to 0.5 M or 20 mM to 0.5 M. The antithrombin concentration in each elution fraction is estimated by absorbance at 280 nm with an absorption coefficient ε=0.65 g^−1·l·cm^−1 and the integrity of purified wild type antithrombin or mutated antithrombins is tested by western blotting using the same couple of antibodies as described before, and electrophoresis on 10% acrylamide/bisacrylamide gel in native and denaturing conditions followed by coomassie brilliant blue R-250 staining (FIG. 4). Then, the antithrombin preparation is aliquoted and stored at −80° C. before use for functional assay. The same procedure is used to purify plasma antithrombin (used as internal reference) from human plasma.

Assay [2] relates to pentasaccharide bound plasma antithrombin (plasma anti-factor Xa activity), HUVEC surface. The experiment in a line: Rotachrom heparin anti factor Xa assay after pre-incubation of pentasaccharide containing plasma-mutated antithrombin mixture on HUVEC surface. Particulars: for virtual pentasaccharide concentration (residual anti-factor Xa activity): 3 μg/mL pentasaccharide. It counts as cell-based, human. How it is done: Finally to evaluate effect of mutated antithrombin on anti-factor Xa activity in conditions as close as possible to in vivo conditions, Rotachrom® heparin method is used to test anti-factor Xa activity in plasma pre-incubated with mutated antithrombin (0-0.6 g/L, preferably 0.15-0.6 g/L in kinetic buffer), during 30 min at 37° C. on human umbilical vein endothelial cells (HUVEC) in culture. Cells are inoculated at 20 000 cells/cm^2 in 96 well plate and grown to confluence for 24 hours in EGM-2 media (Clonetics, Cambrex). After two wash with phosphate buffer saline (Gibco, Invitrogen) cells are starved for 4 hours in EBM-2 media (Clonetics, Cambrex) and then washed again twice in phosphate buffer saline to prevent excess contamination with heparin present in the culture medium. HUVEC coated wells are then used for 30 min incubation of pentasaccharide containing plasma-mutated antithrombin mixture (125 μl/cm^2) before Rotachrom® heparin assay
To evaluate the role of blood-vessel endothelium, or more precisely, the role of glycosamino-glycans exposed on endothelial cell surface, on competition between natural antithrombin and mutated antithrombin for pentasaccharide binding, the same experiment as described above is done but with pre-incubation of pentasaccharide containing plasma-mutated antithrombin mixture on HUVEC surface (FIG. 8).

As for “AT-N135Q-R393H: human antithrombin with substitution at 393 by Histidine and at 135 by Glutamine”, the “elution from heparin affinity column compared with wild type antithrombin” value (“elution … compared with wild type antithrombin” below) in assay [1] is given as “higher ionic strength than wild type antithrombin”. For the same molecule, the “virtual pentasaccharide concentration (residual anti-factor Xa activity)” value stood at 1.66 µg/mL in assay [2] (ratio 1/1), 0.91 µg/mL in assay [2] (ratio 2/1) and 0.26 µg/mL in assay [2] (ratio 4/1).

B1: AT-N135Q-ΔR393: human antithrombin with deletion of position 393 and substitution at 135 by Glutamine (protein, listed as Homo sapiens)
chain: HGSPVDICTAKPRDIPMNPMCIYRSPEKKATEDEGSEQKIPEATNRRVWELSKANSRFATTFYQHLADSKNDNDNIFLSPLSISTAFAMTKLGACNDTLQQLMEVFKFDTISEKTSDQIHFFFAKLNCRLYRKAQKSSKLVSANRLFGDKSLTFNETYQDISELVYGAKLQPLDFKENAEQSRAAINKWVSNKTEGRITDVIPSEAINELTVLVLVNTIYFKGLWKSKFSPENTRKELFYKADGESCSASMMYQEGKFRYRRVAEGTQVLELPFKGDDITMVLILPKPEKSLAKVEKELTPEVLQEWLDELEEMMLVVHMPRFRIEDGFSLKEQLQDMGLVDLFSPEKSKLPGIVAEGRDDLYVSDAFHKAFLEVNEEGSEAAASTAVVIAGSLNPNRVTFKANRPFLVFIREVPLNTIIFMGRVANPCVK
In the case of B1, in assay [1], the “elution … compared with wild type antithrombin” value was “higher ionic strength than wild type antithrombin”.

B2: AT-N135Q-ΔS394: human antithrombin with deletion of position 394 and substitution at 135 by Glutamine (protein, listed as Homo sapiens)
chain: HGSPVDICTAKPRDIPMNPMCIYRSPEKKATEDEGSEQKIPEATNRRVWELSKANSRFATTFYQHLADSKNDNDNIFLSPLSISTAFAMTKLGACNDTLQQLMEVFKFDTISEKTSDQIHFFFAKLNCRLYRKAQKSSKLVSANRLFGDKSLTFNETYQDISELVYGAKLQPLDFKENAEQSRAAINKWVSNKTEGRITDVIPSEAINELTVLVLVNTIYFKGLWKSKFSPENTRKELFYKADGESCSASMMYQEGKFRYRRVAEGTQVLELPFKGDDITMVLILPKPEKSLAKVEKELTPEVLQEWLDELEEMMLVVHMPRFRIEDGFSLKEQLQDMGLVDLFSPEKSKLPGIVAEGRDDLYVSDAFHKAFLEVNEEGSEAAASTAVVIAGRLNPNRVTFKANRPFLVFIREVPLNTIIFMGRVANPCVK
For B2, in assay [1], the “elution … compared with wild type antithrombin” value is “higher ionic strength than wild type antithrombin”.

B3: AT-N135Q-ΔR393-S394: human antithrombin with deletion of positions 393 and 394 and substitution at 135 by Glutamine (protein, listed as Homo sapiens)
chain: HGSPVDICTAKPRDIPMNPMCIYRSPEKKATEDEGSEQKIPEATNRRVWELSKANSRFATTFYQHLADSKNDNDNIFLSPLSISTAFAMTKLGACNDTLQQLMEVFKFDTISEKTSDQIHFFFAKLNCRLYRKAQKSSKLVSANRLFGDKSLTFNETYQDISELVYGAKLQPLDFKENAEQSRAAINKWVSNKTEGRITDVIPSEAINELTVLVLVNTIYFKGLWKSKFSPENTRKELFYKADGESCSASMMYQEGKFRYRRVAEGTQVLELPFKGDDITMVLILPKPEKSLAKVEKELTPEVLQEWLDELEEMMLVVHMPRFRIEDGFSLKEQLQDMGLVDLFSPEKSKLPGIVAEGRDDLYVSDAFHKAFLEVNEEGSEAAASTAVVIAGLNPNRVTFKANRPFLVFIREVPLNTIIFMGRVANPCVK
Consider B3, for which the “elution … compared with wild type antithrombin” value in assay [1] was “higher ionic strength than wild type antithrombin”.

B4: AT-N135Q-Pro394: human antithrombin with Proline inserted between 393 and 394 and substitution at 135 by Glutamine (protein, listed as Homo sapiens)
chain: HGSPVDICTAKPRDIPMNPMCIYRSPEKKATEDEGSEQKIPEATNRRVWELSKANSRFATTFYQHLADSKNDNDNIFLSPLSISTAFAMTKLGACNDTLQQLMEVFKFDTISEKTSDQIHFFFAKLNCRLYRKAQKSSKLVSANRLFGDKSLTFNETYQDISELVYGAKLQPLDFKENAEQSRAAINKWVSNKTEGRITDVIPSEAINELTVLVLVNTIYFKGLWKSKFSPENTRKELFYKADGESCSASMMYQEGKFRYRRVAEGTQVLELPFKGDDITMVLILPKPEKSLAKVEKELTPEVLQEWLDELEEMMLVVHMPRFRIEDGFSLKEQLQDMGLVDLFSPEKSKLPGIVAEGRDDLYVSDAFHKAFLEVNEEGSEAAASTAVVIAGRPSLNPNRVTFKANRPFLVFIREVPLNTIIFMGRVANPCVK
With B4, the “elution … compared with wild type antithrombin” value in assay [1] is listed as “higher ionic strength than wild type antithrombin”. Moreover, the “virtual pentasaccharide concentration (residual anti-factor Xa activity)” value in assay [2] (ratio 1/1) is 1.69 µg/mL; in assay [2] (ratio 2/1) it was 0.94 µg/mL; in assay [2] (ratio 4/1) it was 0.27 µg/mL.

B5: AT-Pro394: human antithrombin with insertion of a Proline between positions 393 and 394 (protein, listed as Homo sapiens)
chain: HGSPVDICTAKPRDIPMNPMCIYRSPEKKATEDEGSEQKIPEATNRRVWELSKANSRFATTFYQHLADSKNDNDNIFLSPLSISTAFAMTKLGACNDTLQQLMEVFKFDTISEKTSDQIHFFFAKLNCRLYRKANKSSKLVSANRLFGDKSLTFNETYQDISELVYGAKLQPLDFKENAEQSRAAINKWVSNKTEGRITDVIPSEAINELTVLVLVNTIYFKGLWKSKFSPENTRKELFYKADGESCSASMMYQEGKFRYRRVAEGTQVLELPFKGDDITMVLILPKPEKSLAKVEKELTPEVLQEWLDELEEMMLVVHMPRFRIEDGFSLKEQLQDMGLVDLFSPEKSKLPGIVAEGRDDLYVSDAFHKAFLEVNEEGSEAAASTAVVIAGRPSLNPNRVTFKANRPFLVFIREVPLNTIIFMGRVANPCVK
With B5, in assay [2] (over-dosing conditions), the “effect on anti-factor Xa activity of pentasaccharide” value is reported as “decreases anti-factor Xa activity”.

For the origin of these results see patent publication US8741844B2, “Use of mutated antithrombins for treating or preventing coagulation disorders” (Universite Paris-Sud XI, priority 2007, dated 2014).
